In test [1] the target is FGF-2 (UniProt P09038). Briefly: BIAcore. In general terms: In SPR one partner is held on a chip, and binding of the other changes the refractive index at the surface.
Test [2] deals with FGF-2 (UniProt P09038). Briefly: BIAcore, two-state reaction with conformation change model.

UniProt P09038, sequence (P09038 143-288 limits assumed): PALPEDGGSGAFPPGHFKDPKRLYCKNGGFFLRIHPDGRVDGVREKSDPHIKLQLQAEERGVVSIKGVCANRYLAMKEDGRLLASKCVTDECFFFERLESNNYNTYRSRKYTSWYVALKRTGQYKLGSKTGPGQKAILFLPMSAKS

For orientation: Kd means a measure of binding affinity in units of concentration. As for “sFGFR2-Fc variant 4493 (no Ig-like domain 1) (from UniProt P21802 126-377) (Fc fusion)”, the Kd in test [1] and in test [2] was 1.19 nM throughout.

For the origin of these results see US20100061979A1.
